We go through four proteins from PMC3897949, “Dimeric structure of p300/CBP associated factor” (BMC Structural Biology, 2014).

B1: PCAF HAT domain (amino acids 493-658) L512A/M513A/V516A (domain or fragment, human, UniProt Q92831 493-658, looked up)
chain: VIEFHVVGNSLNQKPNKKIAAWLAGLQNVFSHQLPRMPKEYITRLVFDPKHKTLALIKDGRVIGGICFRMFPSQGFTEIVFCAVTSNEQVKGYGTHLMNHLKEYHIKHDILNFLTYADEYAIGYFKKQGFSKEIKIPKTKYVGYIKDYEGATLMGCELNPRIPYTE
notes: p300/CBP associated factor (PCAF, KAT2B), human, HAT domain, residues 493-658; also called LMV512AAA
B2: PCAF HAT domain (amino acids 493-658) F539A (domain or fragment, human, UniProt Q92831 493-658, looked up)
chain: VIEFHVVGNSLNQKPNKKILMWLVGLQNVFSHQLPRMPKEYITRLVADPKHKTLALIKDGRVIGGICFRMFPSQGFTEIVFCAVTSNEQVKGYGTHLMNHLKEYHIKHDILNFLTYADEYAIGYFKKQGFSKEIKIPKTKYVGYIKDYEGATLMGCELNPRIPYTE
notes: p300/CBP associated factor (PCAF, KAT2B), human, HAT domain, residues 493-658
B3: PCAF HAT domain (amino acids 493-658) L512D/V516D (domain or fragment, human, UniProt Q92831 493-658, looked up)
chain: VIEFHVVGNSLNQKPNKKIDMWLDGLQNVFSHQLPRMPKEYITRLVFDPKHKTLALIKDGRVIGGICFRMFPSQGFTEIVFCAVTSNEQVKGYGTHLMNHLKEYHIKHDILNFLTYADEYAIGYFKKQGFSKEIKIPKTKYVGYIKDYEGATLMGCELNPRIPYTE
notes: p300/CBP associated factor (PCAF, KAT2B), human, HAT domain, residues 493-658; also called LV512DD
B4: PCAF HAT domain (amino acids 493-658) L512D/V516D/F539A (domain or fragment, human, UniProt Q92831 493-658, looked up)
chain: VIEFHVVGNSLNQKPNKKIDMWLDGLQNVFSHQLPRMPKEYITRLVADPKHKTLALIKDGRVIGGICFRMFPSQGFTEIVFCAVTSNEQVKGYGTHLMNHLKEYHIKHDILNFLTYADEYAIGYFKKQGFSKEIKIPKTKYVGYIKDYEGATLMGCELNPRIPYTE
notes: p300/CBP associated factor (PCAF, KAT2B), human, HAT domain, residues 493-658; also called LVF512DDA

This data set concerns the molecule itself. Description: cross-linking; 1 mg/ml protein in 50 mM HEPES pH7.5, 50 mM sodium sulfate; DSS at 5X molar concentration, 1 h at room temperature; SDS-PAGE, coomassie blue.
Take B1: the binding result is reported as “binds”.
The entry for B2 is “binds”; for B3 it is “binds”; for B4 it is “binds”.
